Results from publication PMC5916898.

Assays:
[1] = molecular target: GST-KLF4-ZF (UniProt O43474); experiment: fluorescence polarization; conditions: Pull-down: 150 mM NaCl (or LiCl), 50 mM Tris pH 8, 0.25% NP-40, 1 mM TCEP, protease inhibitors, 4 C, 2 h; EMSA with lysate in same buffer, RT 15 min; FP in …
[2] = molecular target: GST-KLF4-ZF (UniProt O43474); experiment: fluorescence intensity (de-quenching); conditions: Pull-down: 150 mM NaCl (or LiCl), 50 mM Tris pH 8, 0.25% NP-40, 1 mM TCEP, protease inhibitors, 4 C, 2 h; EMSA with lysate in same buffer, RT 15 min; FP in …
[3] = molecular target: SMARCA5 (human (HeLa)) (UniProt O60264); experiment: pull-down TMT-MS titration; conditions: apparent, Pull-down: 150 mM NaCl (or LiCl), 50 mM Tris pH 8, 0.25% NP-40, 1 mM TCEP, protease inhibitors, 4 C, 2 h, EMSA with lysate in same buffer, RT 15 min, FP in …
[4] = molecular target: SMARCA4 (human (HeLa)) (UniProt P51532); experiment: pull-down TMT-MS titration; conditions: apparent, Pull-down: 150 mM NaCl (or LiCl), 50 mM Tris pH 8, 0.25% NP-40, 1 mM TCEP, protease inhibitors, 4 C, 2 h, EMSA with lysate in same buffer, RT 15 min, FP in …
[5] = test system: SMARCA2 (human (HeLa)); experiment: pull-down TMT-MS titration; conditions: apparent, Pull-down: 150 mM NaCl (or LiCl), 50 mM Tris pH 8, 0.25% NP-40, 1 mM TCEP, protease inhibitors, 4 C, 2 h, EMSA with lysate in same buffer, RT 15 min, FP in …
[6] = test system: BAZ1B (human (HeLa)); experiment: pull-down TMT-MS titration; conditions: apparent, Pull-down: 150 mM NaCl (or LiCl), 50 mM Tris pH 8, 0.25% NP-40, 1 mM TCEP, protease inhibitors, 4 C, 2 h, EMSA with lysate in same buffer, RT 15 min, FP in …
[7] = test system: BPTF (human (HeLa)); experiment: pull-down TMT-MS titration; conditions: apparent, Pull-down: 150 mM NaCl (or LiCl), 50 mM Tris pH 8, 0.25% NP-40, 1 mM TCEP, protease inhibitors, 4 C, 2 h, EMSA with lysate in same buffer, RT 15 min, FP in …
[8] = test system: BAZ1A (human (HeLa)); experiment: pull-down TMT-MS titration; conditions: apparent, Pull-down: 150 mM NaCl (or LiCl), 50 mM Tris pH 8, 0.25% NP-40, 1 mM TCEP, protease inhibitors, 4 C, 2 h, EMSA with lysate in same buffer, RT 15 min, FP in …
[9] = test system: C17orf49 (human (HeLa)); experiment: pull-down TMT-MS titration; conditions: apparent; histone H3K4me3; Pull-down: 150 mM NaCl (or LiCl), 50 mM Tris pH 8, 0.25% NP-40, 1 mM TCEP, protease inhibitors, 4 C, 2 h; EMSA with lysate in same buffer, RT 15 min; FP in …
[10] = test system: PHF10 (human (HeLa)); experiment: pull-down TMT-MS titration; conditions: apparent; histone H3K9ac K14ac; Pull-down: 150 mM NaCl (or LiCl), 50 mM Tris pH 8, 0.25% NP-40, 1 mM TCEP, protease inhibitors, 4 C, 2 h; EMSA with lysate in same buffer, RT 15 min; FP in …
[11] = molecular target: H3K9AcK14Ac modified di-nucleosome (human) (UniProt P68431); experiment: affinity purification with mass spectrometry; titration series of ten concentrations of biotinylated recombinant di-nucleosome on streptavidin beads; 100 ug HeLa nuclear lysate per pulldown in PBB (150 mM NaCl, 50 mM Tris pH 8, 0.25% NP-40, 1 mM TCEP), 2 h at 4 °C; 10-plex TMT, SPS-MS3; apparent Kd from a Hill-like fit, triplicate, r^2 > 0.9

Chain of SMARCA5 (human (HeLa)) (O60264 2-1052): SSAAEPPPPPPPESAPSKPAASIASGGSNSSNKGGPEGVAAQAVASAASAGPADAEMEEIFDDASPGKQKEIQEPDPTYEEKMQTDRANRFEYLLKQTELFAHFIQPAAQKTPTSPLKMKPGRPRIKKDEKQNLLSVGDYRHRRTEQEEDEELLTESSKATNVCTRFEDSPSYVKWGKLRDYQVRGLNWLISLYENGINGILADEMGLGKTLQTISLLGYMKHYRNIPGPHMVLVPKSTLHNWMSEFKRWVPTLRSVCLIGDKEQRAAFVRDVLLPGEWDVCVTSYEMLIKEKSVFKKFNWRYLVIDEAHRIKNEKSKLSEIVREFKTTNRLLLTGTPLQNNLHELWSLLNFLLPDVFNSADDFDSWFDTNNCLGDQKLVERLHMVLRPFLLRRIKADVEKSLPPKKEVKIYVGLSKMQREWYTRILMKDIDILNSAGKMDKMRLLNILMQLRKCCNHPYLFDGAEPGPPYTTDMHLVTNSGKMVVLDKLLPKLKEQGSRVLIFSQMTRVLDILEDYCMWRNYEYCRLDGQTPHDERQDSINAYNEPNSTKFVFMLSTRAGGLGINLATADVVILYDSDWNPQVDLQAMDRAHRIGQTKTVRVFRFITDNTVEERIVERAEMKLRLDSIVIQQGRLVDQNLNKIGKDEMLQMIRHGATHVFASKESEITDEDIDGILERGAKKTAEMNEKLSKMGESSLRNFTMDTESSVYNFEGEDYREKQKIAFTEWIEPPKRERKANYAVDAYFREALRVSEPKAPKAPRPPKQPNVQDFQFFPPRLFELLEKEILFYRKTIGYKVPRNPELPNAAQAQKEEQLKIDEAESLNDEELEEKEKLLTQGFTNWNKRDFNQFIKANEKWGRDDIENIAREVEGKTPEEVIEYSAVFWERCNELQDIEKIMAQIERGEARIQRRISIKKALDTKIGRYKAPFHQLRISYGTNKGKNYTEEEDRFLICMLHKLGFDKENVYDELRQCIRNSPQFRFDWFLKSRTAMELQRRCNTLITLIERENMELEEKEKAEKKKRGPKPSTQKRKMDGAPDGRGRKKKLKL
Chain of SMARCA4 (human (HeLa)) (P51532 whole entry): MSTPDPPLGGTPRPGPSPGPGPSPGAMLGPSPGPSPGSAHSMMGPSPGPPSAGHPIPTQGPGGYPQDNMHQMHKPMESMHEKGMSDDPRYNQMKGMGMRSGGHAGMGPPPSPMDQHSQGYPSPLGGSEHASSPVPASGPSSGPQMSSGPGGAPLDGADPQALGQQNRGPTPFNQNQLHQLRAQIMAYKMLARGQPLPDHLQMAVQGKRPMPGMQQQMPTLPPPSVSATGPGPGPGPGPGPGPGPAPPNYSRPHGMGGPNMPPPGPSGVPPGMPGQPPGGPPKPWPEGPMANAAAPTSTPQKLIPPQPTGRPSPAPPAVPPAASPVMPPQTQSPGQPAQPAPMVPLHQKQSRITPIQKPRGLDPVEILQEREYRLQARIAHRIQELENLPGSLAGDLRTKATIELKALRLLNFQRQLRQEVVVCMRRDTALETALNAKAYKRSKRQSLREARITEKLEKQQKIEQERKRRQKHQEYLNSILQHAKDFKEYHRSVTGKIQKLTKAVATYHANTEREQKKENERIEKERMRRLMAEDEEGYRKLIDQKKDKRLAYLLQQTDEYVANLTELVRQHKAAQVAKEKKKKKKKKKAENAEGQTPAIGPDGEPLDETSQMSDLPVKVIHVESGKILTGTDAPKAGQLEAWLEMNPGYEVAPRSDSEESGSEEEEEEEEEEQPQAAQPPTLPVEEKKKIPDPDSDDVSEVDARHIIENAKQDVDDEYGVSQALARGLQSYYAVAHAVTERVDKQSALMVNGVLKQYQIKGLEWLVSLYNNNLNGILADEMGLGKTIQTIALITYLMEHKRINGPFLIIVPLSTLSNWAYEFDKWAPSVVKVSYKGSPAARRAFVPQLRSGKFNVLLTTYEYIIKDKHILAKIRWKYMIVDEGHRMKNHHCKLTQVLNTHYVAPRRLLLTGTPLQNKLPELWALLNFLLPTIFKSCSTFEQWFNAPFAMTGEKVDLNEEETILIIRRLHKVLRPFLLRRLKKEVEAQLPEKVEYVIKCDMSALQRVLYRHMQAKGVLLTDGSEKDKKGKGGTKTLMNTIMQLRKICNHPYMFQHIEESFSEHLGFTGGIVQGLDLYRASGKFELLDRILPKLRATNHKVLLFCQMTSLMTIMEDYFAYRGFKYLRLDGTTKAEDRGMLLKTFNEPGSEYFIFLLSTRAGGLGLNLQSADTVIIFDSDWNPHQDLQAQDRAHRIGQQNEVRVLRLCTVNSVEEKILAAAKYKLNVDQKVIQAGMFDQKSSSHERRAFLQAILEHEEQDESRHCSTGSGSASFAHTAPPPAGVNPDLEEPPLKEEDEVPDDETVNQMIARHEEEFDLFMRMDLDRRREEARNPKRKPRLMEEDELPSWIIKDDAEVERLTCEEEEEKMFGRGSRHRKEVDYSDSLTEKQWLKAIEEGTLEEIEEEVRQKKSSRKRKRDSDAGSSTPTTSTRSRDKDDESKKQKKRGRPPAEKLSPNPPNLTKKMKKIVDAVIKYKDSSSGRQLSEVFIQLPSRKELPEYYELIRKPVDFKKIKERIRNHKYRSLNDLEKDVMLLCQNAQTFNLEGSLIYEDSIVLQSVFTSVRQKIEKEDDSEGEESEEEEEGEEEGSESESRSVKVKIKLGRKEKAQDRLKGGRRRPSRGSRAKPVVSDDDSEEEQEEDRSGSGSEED
Chain of GST-KLF4-ZF (O43474 whole entry): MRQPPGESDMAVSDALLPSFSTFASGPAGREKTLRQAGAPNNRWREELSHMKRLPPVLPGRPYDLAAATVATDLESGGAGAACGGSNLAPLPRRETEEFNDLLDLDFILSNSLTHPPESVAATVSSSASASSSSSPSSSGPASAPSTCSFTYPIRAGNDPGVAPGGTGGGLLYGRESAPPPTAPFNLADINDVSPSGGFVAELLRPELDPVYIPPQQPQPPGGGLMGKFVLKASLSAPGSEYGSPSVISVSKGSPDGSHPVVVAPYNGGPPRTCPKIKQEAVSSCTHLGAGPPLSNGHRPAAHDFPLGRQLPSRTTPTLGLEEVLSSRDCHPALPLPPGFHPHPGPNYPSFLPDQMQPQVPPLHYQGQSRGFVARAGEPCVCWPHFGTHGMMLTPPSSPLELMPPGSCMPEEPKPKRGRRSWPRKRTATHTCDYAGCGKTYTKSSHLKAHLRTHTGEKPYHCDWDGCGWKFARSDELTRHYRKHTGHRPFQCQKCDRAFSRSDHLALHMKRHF
Chain of PHF10 (Q8WUB8 whole entry): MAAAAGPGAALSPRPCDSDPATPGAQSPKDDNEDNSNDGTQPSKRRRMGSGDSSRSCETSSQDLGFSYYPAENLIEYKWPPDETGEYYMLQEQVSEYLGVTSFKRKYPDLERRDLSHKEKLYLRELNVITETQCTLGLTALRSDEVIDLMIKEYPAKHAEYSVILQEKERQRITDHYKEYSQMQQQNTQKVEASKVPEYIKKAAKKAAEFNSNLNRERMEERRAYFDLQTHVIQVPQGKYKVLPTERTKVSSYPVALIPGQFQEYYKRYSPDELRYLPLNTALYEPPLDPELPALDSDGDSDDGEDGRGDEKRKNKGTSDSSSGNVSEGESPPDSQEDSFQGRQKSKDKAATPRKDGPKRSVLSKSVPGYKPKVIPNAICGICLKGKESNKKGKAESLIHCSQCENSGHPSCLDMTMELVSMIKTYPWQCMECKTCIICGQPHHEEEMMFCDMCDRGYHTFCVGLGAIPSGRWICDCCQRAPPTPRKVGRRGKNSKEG

Substance: GAGAGCCCCGCCCCCTGGCT (double strand) [SP/KLF wild-type Cy5]
- Kd [1]: 0.0218 µM
- Kd [2]: 0.0202 µM

Substance: H3K4me3 di-nucleosome
- Kd ([3]; histone H3K4me3): 0.0824 µM
- Kd ([4]; histone H3K4me3): 0.123 µM
- Kd ([5]; histone H3K4me3): 0.0518 µM
- Kd ([6]; histone H3K4me3): 0.0906 µM
- Kd ([7]; histone H3K4me3): 0.054 µM
- Kd ([8]; histone H3K4me3): 0.1 µM
- Kd [9]: 0.0687 µM

Substance: H3K9AcK14Ac di-nucleosome
- Kd [10]: 0.035 µM
- Kd ([3]; histone H3K9ac K14ac): 0.0526 µM
- Kd ([4]; histone H3K9ac K14ac): 0.0687 µM
- Kd ([5]; histone H3K9ac K14ac): 0.0359 µM
- Kd ([6]; histone H3K9ac K14ac): 0.015 µM
- Kd ([7]; histone H3K9ac K14ac): 0.0279 µM
- Kd ([8]; histone H3K9ac K14ac): 0.114 µM

Substance: PHF10 (from UniProt Q8WUB8 1-498) (natural protein)
- Kd [11]: 0.035 µM

Substance: unmodified H3 di-nucleosome
- Kd [3]: 0.102 µM
- Kd [4]: 0.174 µM
- Kd [5]: 0.162 µM
- Kd [6]: 0.122 µM
- Kd [7]: 0.0532 µM
- Kd [8]: 0.151 µM
